Data: US20260242478A1 (published 2026)
Where no end group is shown, it is not given here.

What was measured:
PSMA Fab [1] = target: T1, PSMA Fab; assay: clonal phage ELISA; biotinylated PSMA Fab on neutravidin plate, blocking buffer alone; anti-M13 HRP detection;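 further: crude clonal phage supernatants added without washing to wells pretreated with blocking buffer with or without PSMA antigen, short incubation, then washed before detecting bound phage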
T1 construct: also called Anti-PSMA Fab; 006 PSMA Fab
Description: (§1) Clonal phage were harvested as crude supernatants and screened via standard ELISAs. […] Prior to the addition of clonal phage. wells were incubated with blocking buffer and PSMA antigen or blocking buffer alone. Without washing or aspirating, clonal phage supernatants were then added to the wells and incubated for a short time. Wells were then washed followed by detection of bound phage using a horse radish conjugated anti-M13 antibody.

PSMA Fab [2] = target: T1, PSMA Fab; assay: clonal phage ELISA; biotinylated PSMA Fab on neutravidin plate, pre-incubated with PSMA antigen as competitor; anti-M13 HRP detection
Description: as §1

PSMA Fab (006 PSMA Fab) [3] = target: T2, PSMA Fab (006 PSMA Fab) (Fab biotinylated for capture on neutravidin plates (site not given)); assay: clonal phage ELISA; biotinylated PSMA Fab on neutravidin plate, wells pre-incubated with PSMA antigen as competitor; anti-M13-HRP detection
T2 construct: also called Anti-PSMA Fab; anti-PSMA Fab

PSMA Fab (006 PSMA Fab) [4] = target: T2, PSMA Fab (006 PSMA Fab); assay: clonal phage ELISA; biotinylated PSMA Fab on neutravidin plate, blocking buffer alone; anti-M13-HRP detection;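 further: clonal phage applied as crude supernatants to wells preincubated with blocking buffer, binding read by ELISA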
Description: as §1

PSMA Fab [5] = target: T3, PSMA Fab (biotinylated (site not stated)); assay: clonal phage ELISA on biotinylated PSMA Fab captured on neutravidin plates, anti-M13-HRP detection;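 further: crude clonal phage supernatants added to wells preincubated with PSMA antigen or with blocking buffer only (no wash between), briefly incubated, then washed before detecting bound phage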
T3 construct: Biotinylated PSMA Fab captured on neutravidin coated plates in the phage ELISA; also called anti-PSMA Fab; 006 PSMA Fab

PSMA Fab [6] = target: T3, PSMA Fab; assay: clonal phage ELISA on captured PSMA Fab pre-incubated with PSMA antigen as competitor, anti-M13-HRP detection;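 further: wells blocked with buffer plus PSMA antigen before phage addition, with blocking buffer alone as the no-competitor control, bound phage detected after washing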
Description: as §1

PSMA Fab (006 PSMA Fab) [7] = target: T4, PSMA Fab (006 PSMA Fab) (biotinylated (site not stated)); assay: clonal phage ELISA on captured anti-PSMA Fab pre-incubated with PSMA antigen (competitor: PSMA)
T4 construct: That the same Fab was used in the panning ELISA is inferred; also called Anti-PSMA Fab; anti-PSMA Fab

PSMA Fab (006 PSMA Fab) [8] = target: T4, PSMA Fab (006 PSMA Fab); assay: clonal phage ELISA on biotinylated anti-PSMA Fab captured on neutravidin, anti-M13-HRP detection
Description: as §1

| Binder | Phage binding ELISA signal, Anti-PSMA Fab (PSMA Fab [1]) | Phage binding ELISA signal, Anti-PSMA Fab with PSMA antigen (PSMA Fab [2]) | phage binding ELISA signal in the presence of PSMA (PSMA Fab (006 PSMA Fab) [7]) | phage binding ELISA signal (PSMA Fab (006 PSMA Fab) [8]) | further results |
| --- | --- | --- | --- | --- | --- |
| DFVRCVPDWMCQGF [Phage-3414] | 1.79 | 0.0627 |  |  |  |
| EDVRCVPAWMCNGF (cysteine pairing not given here; also: fused to pIII of bacteriophage, also called Peptide-180 library clone; not shown: pIII filament protein of the bacteriophage) [Phage-3449] |  |  |  |  | Phage binding ELISA signal, Anti-PSMA Fab in presence of PSMA antigen (PSMA Fab (006 PSMA Fab) [3]): 0.0724; Phage binding ELISA signal, Anti-PSMA Fab (PSMA Fab (006 PSMA Fab) [4]): 1.75 |
| VEPLCRPMWMCEGI [Phage-3410] | 1.79 | 0.122 |  |  |  |
| IEAVCKPSWMCAGF (cysteine pairing not given here; also: fused to pIII of bacteriophage) [Phage-3391] |  |  |  |  | Phage binding ELISA signal, Anti-PSMA Fab (PSMA Fab [5]): 1.8; Phage binding ELISA signal, Anti-PSMA Fab with PSMA antigen (PSMA Fab [6]): 0.0703 |
| SFLRCEPMWMCLGF (Peptide-180 library clone, tested as clonal phage supernatant; not shown: fused to the pIII filament protein of the bacteriophage) [Phage-3432] |  |  | 0.0816 | 1.77 |  |
| NDVKCIPEWMCVGF (Peptide-180 library clone, tested as clonal phage supernatant; not shown: fused to the pIII filament protein of the bacteriophage) [Phage-3420] |  |  | 0.0849 | 1.78 |  |
| TDPLCIPEWMCQGM (Peptide-180 library clone, tested as clonal phage supernatant; not shown: fused to the pIII filament protein of the bacteriophage) [Phage-3421] |  |  | 0.0726 | 1.78 |  |
| SEILCRPAWMCTGF [Phage-3407] | 1.79 | 0.104 |  |  |  |
| DTFMCRPSWMCNGF [Phage-3409] | 1.79 | 0.072 |  |  |  |
| LEIMCRPEWMCSGF (Peptide-180 library clone, tested as clonal phage supernatant; not shown: fused to the pIII filament protein of the bacteriophage) [Phage-3425] |  |  | 0.0888 | 1.77 |  |
| HIMQCKPAWMCSGL (also called Peptide-180 library clone; not shown: pIII filament protein of the bacteriophage) [Phage-3456] |  |  |  |  | Phage binding ELISA signal, Anti-PSMA Fab in presence of PSMA antigen (PSMA Fab (006 PSMA Fab) [3]): 0.0654; Phage binding ELISA signal, Anti-PSMA Fab (PSMA Fab (006 PSMA Fab) [4]): 1.74 |
| VERACRPVWMCQGF [Phage-3417] | 1.78 | 0.0907 |  |  |  |
| VEKMCKPVWMCNGF (Peptide-180 library clone, tested as clonal phage supernatant; not shown: fused to the pIII filament protein of the bacteriophage) [Phage-3430] |  |  | 0.115 | 1.77 |  |
| AQGVCIPQWMCDGF (cysteine pairing not given here; also: fused to pIII of bacteriophage) [Phage-3406] | 1.79 | 0.0715 |  |  |  |
| DTWICKPEWMCMGF [Phage-3416] | 1.78 | 0.0802 |  |  |  |
| VTMRCTPDWMCVGF (also called Peptide-180 library clone; not shown: pIII filament protein of the bacteriophage) [Phage-3454] |  |  |  |  | Phage binding ELISA signal, Anti-PSMA Fab in presence of PSMA antigen (PSMA Fab (006 PSMA Fab) [3]): 0.0737; Phage binding ELISA signal, Anti-PSMA Fab (PSMA Fab (006 PSMA Fab) [4]): 1.74 |
| LSTLCIPQWMCTGL (Peptide-180 library clone, tested as clonal phage supernatant; not shown: fused to the pIII filament protein of the bacteriophage) [Phage-3422] |  |  | 0.0813 | 1.78 |  |
| TSLRCVPEWMCSGF (Peptide-180 library clone, tested as clonal phage supernatant; not shown: fused to the pIII filament protein of the bacteriophage) [Phage-3428] |  |  | 0.0814 | 1.77 |  |
| SVKVCKPAWMCAGF (cysteine pairing not given here; also: fused to pIII of bacteriophage) [Phage-3413] | 1.79 | 0.102 |  |  |  |
| YFQMCAPRWMCEGF (cysteine pairing not given here; also: fused to pIII of bacteriophage, Peptide-180 library clone, tested as clonal phage supernatant; not shown: fused to the pIII filament protein of the bacteriophage) [Phage-3423] |  |  | 0.0849 | 1.78 |  |
| FEFRCTPEWMCRGF (also called Peptide-180 library clone; not shown: pIII filament protein of the bacteriophage) [Phage-3453] |  |  |  |  | Phage binding ELISA signal, Anti-PSMA Fab in presence of PSMA antigen (PSMA Fab (006 PSMA Fab) [3]): 0.0706; Phage binding ELISA signal, Anti-PSMA Fab (PSMA Fab (006 PSMA Fab) [4]): 1.74 |

| Binder | Phage binding ELISA signal, Anti-PSMA Fab (PSMA Fab [1]) | Phage binding ELISA signal, Anti-PSMA Fab with PSMA antigen (PSMA Fab [2]) | phage binding ELISA signal in the presence of PSMA (PSMA Fab (006 PSMA Fab) [7]) | phage binding ELISA signal (PSMA Fab (006 PSMA Fab) [8]) | further results |
| --- | --- | --- | --- | --- | --- |
| ELVRCIPVWMCQGF [Phage-3412] | 1.79 | 0.368 |  |  |  |
| IGAMCEPKWMCFGF (cysteine pairing not given here; also: fused to pIII of bacteriophage) [Phage-3389] |  |  |  |  | Phage binding ELISA signal, Anti-PSMA Fab (PSMA Fab [5]): 1.8; Phage binding ELISA signal, Anti-PSMA Fab with PSMA antigen (PSMA Fab [6]): 0.118 |
| SLAQCVPEWMCFGF [Phage-3411] | 1.79 | 0.113 |  |  |  |
| IMPTCVPQWMCNGF [Phage-3418] | 1.78 | 0.093 |  |  |  |
| GDHYCKPDWMCSGF [Phage-3408] | 1.79 | 0.071 |  |  |  |
| EDILCKPVWMCIGF (Peptide-180 library clone, tested as clonal phage supernatant; not shown: fused to the pIII filament protein of the bacteriophage) [Phage-3431] |  |  | 0.06 | 1.77 |  |
| IEPHCVPAWMCTGF (Peptide-180 library clone, tested as clonal phage supernatant; not shown: fused to the pIII filament protein of the bacteriophage) [Phage-3433] |  |  | 0.0805 | 1.76 |  |
| IEALCVPDWMCRGF (also called Peptide-180 library clone; not shown: pIII filament protein of the bacteriophage) [Phage-3455] |  |  |  |  | Phage binding ELISA signal, Anti-PSMA Fab in presence of PSMA antigen (PSMA Fab (006 PSMA Fab) [3]): 0.0663; Phage binding ELISA signal, Anti-PSMA Fab (PSMA Fab (006 PSMA Fab) [4]): 1.74 |
| MQMMCKPDWMCEGF [Phage-3388] |  |  |  |  | Phage binding ELISA signal, Anti-PSMA Fab (PSMA Fab [5]): 1.8; Phage binding ELISA signal, Anti-PSMA Fab with PSMA antigen (PSMA Fab [6]): 0.0755 |
| QGTLCVPSWMCSGF [Phage-3390] |  |  |  |  | Phage binding ELISA signal, Anti-PSMA Fab (PSMA Fab [5]): 1.8; Phage binding ELISA signal, Anti-PSMA Fab with PSMA antigen (PSMA Fab [6]): 0.0523 |
| SLPICKPEWMCVGL (Peptide-180 library clone, tested as clonal phage supernatant; not shown: fused to the pIII filament protein of the bacteriophage) [Phage-3429] |  |  | 0.0892 | 1.77 |  |
| SSMLCIPTWMCGGF (Peptide-180 library clone, tested as clonal phage supernatant; not shown: fused to the pIII filament protein of the bacteriophage) [Phage-3427] |  |  | 0.0536 | 1.77 |  |
| PLKLCIPEWMCVEL (also called Peptide-180 library clone; not shown: pIII filament protein of the bacteriophage) [Phage-3450] |  |  |  |  | Phage binding ELISA signal, Anti-PSMA Fab in presence of PSMA antigen (PSMA Fab (006 PSMA Fab) [3]): 0.0747; Phage binding ELISA signal, Anti-PSMA Fab (PSMA Fab (006 PSMA Fab) [4]): 1.75 |
| FSVRCVPEWMCAGF (cysteine pairing not given here; also: fused to pIII of bacteriophage) [Phage-3387] |  |  |  |  | Phage binding ELISA signal, Anti-PSMA Fab (PSMA Fab [5]): 1.8; Phage binding ELISA signal, Anti-PSMA Fab with PSMA antigen (PSMA Fab [6]): 0.0701 |
| IDQICKPAWMCSGF (Peptide-180 library clone, tested as clonal phage supernatant; not shown: fused to the pIII filament protein of the bacteriophage) [Phage-3424] |  |  | 0.0628 | 1.78 |  |
| METWCVPTWMCTGF [Phage-3415] | 1.79 | 0.0748 |  |  |  |
| MLPYCVPQWMCMGF [Phage-3419] | 1.78 | 0.147 |  |  |  |
| MTPRCIPSWMCFGM (Peptide-180 library clone, tested as clonal phage supernatant; not shown: fused to the pIII filament protein of the bacteriophage) [Phage-3426] |  |  | 0.086 | 1.77 |  |
| TINICKPQWMCIGF (also called Peptide-180 library clone; not shown: pIII filament protein of the bacteriophage) [Phage-3451] |  |  |  |  | Phage binding ELISA signal, Anti-PSMA Fab in presence of PSMA antigen (PSMA Fab (006 PSMA Fab) [3]): 0.0893; Phage binding ELISA signal, Anti-PSMA Fab (PSMA Fab (006 PSMA Fab) [4]): 1.74 |
| MERFCIPSWMCEGL (also called Peptide-180 library clone; not shown: pIII filament protein of the bacteriophage) [Phage-3452] |  |  |  |  | Phage binding ELISA signal, Anti-PSMA Fab in presence of PSMA antigen (PSMA Fab (006 PSMA Fab) [3]): 0.0682; Phage binding ELISA signal, Anti-PSMA Fab (PSMA Fab (006 PSMA Fab) [4]): 1.74 |
